The target of experiment [1] is T1, recombinant human IL-15 (R&D systems cat. no. 247-IL) (human, UniProt P40933 49-162). In words: cell-based or functional assay.
The target in experiment [2] is T2, recombinant rat IL-15 (Sigma cat. no. SRP4172) (rat, UniProt P97604 49-162).
T2 sequence: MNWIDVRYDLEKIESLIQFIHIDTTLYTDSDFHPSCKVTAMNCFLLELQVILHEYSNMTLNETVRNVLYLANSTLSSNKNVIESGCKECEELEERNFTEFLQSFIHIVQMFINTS
The experiment in a line: ELISA, plate-bound recombinant rat IL-15 (100 ng/well), HRP goat anti-human IgG, absorbance at 450 nm. The procedure:
(§1) Maxisorp plates were coated with recombinant mouse IL-15 (R&D Systems cat. no. 447-ML) or rat IL-15 (Sigma cat. no. SRP4172) at 100 ng/well in carbonate coating buffer for 2 hours at 37° C. Tested IL-15 recombinant proteins have a sequence identical to that provided in SEQ ID NO: 2 (mouse IL-15) and SEQ ID NO: 3 (rat IL-15) but with an additional methionine at the N-terminal position as usually done for expressing recombinant proteins in E. Coli.
(§2) The plate was then blocked with 2% normal goat serum for 30 min at 37° C. and washed 6 times with PBS-Tween (0.05% Tween-20 in PBS, v/v). Test antibodies were added to the plate in triplicate at various dilutions in PBS-Tween and the plate was incubated with gentle rocking at room temperature for 2 hours. As positive controls, rabbit-anti-mouse IL-15 (Acris cat. no. AP01124PU-S) or rabbit anti-rat IL-15 (Biovision cat. no. 5172) antibodies were tested at the same concentrations. The plate was then washed 6 times with PBS-Tween and an appropriate dilution of HRP-conjugated goat anti-human IgG antibody (Millipore cat. no. AP309P) for humanized antibodies, or goat-anti-rabbit IgG antibody (Sigma cat. no. A 4416) for the positive controls was added and the plate was left rocking at room temperature for 1 hour. The plate was then washed 6 times with PBS-Tween and incubated with TMB substrate. The reaction was stopped by the addition of 1M H₂SO₄ and read at 450 nm. Dose response curves of absorbance versus concentration were plotted using the Graphpad Prism software.

The target in experiment [3] is T3, recombinant Macaque Monkey IL-15 (MyBiosource cat. no. MBS948894) (Rhesus macaque / Cynomolgus monkey, UniProt P40221 49-162 (Chlorocebus aethiops entry)). The experiment in a line: cell-based or functional assay.
Experiment [4] has as its target T1, recombinant human IL-15 (R&D systems …). In words: cell-based or functional assay. This is another data set of the same source.
The target in experiment [5] is T4, recombinant human IL-15 (Prospec cat no. CYT230) (human, UniProt P40933 49-162). In words: ELISA, plate-bound human IL-15; printed as BC50 (half-maximal binding concentration). The procedure: (§3) Maxisorp plates were coated with recombinant human IL-15 (Prospec cat no. CYT230) or Rhesus macaque IL-15 (MyBiosource cat. no. MBS948894) at 100 ng/well in carbonate coating buffer for 2 hours at 37° C. Since published sequences of Rhesus macaque and Cynomolgus monkey IL-15 are identical, such recombinant IL-15 protein was referred to as Macaque Monkey IL-15. Tested human IL-15 recombinant protein has a sequence identical to that provided in SEQ ID NO: 1 but with an additional methionine at the N-terminal position as usually done for expressing recombinant proteins in E. Coli. Tested recombinant Macaque Monkey IL-15 was produced in yeast and has a sequence identical to that provided in SEQ ID NO: 4 but with an additional N-terminal His tag.
(§4) The plate was then blocked with 2% normal goat serum for 30 min at 37° C. and washed 6 times with PBS-Tween (0.05% Tween-20 in PBS, v/v). Test antibodies were added to the plate in triplicate at various dilutions in PBS-Tween and the plate was incubated with gentle rocking at room temperature for 2 hours. The plate was then washed 6 times with PBS-Tween and an appropriate dilution of goat anti-human IgG antibody (Millipore cat. no. AP309P) conjugated to horseradish peroxidase (HRP) was added to the plate and left rocking at room temperature for 1 hour. The plate was then washed 6 times with PBS-Tween and incubated with TMB substrate. The reaction was stopped by the addition of 1M H₂SO₄ and read at 450 nm. Dose response curves of absorbance versus concentration were plotted and analyzed to determine half-maximal binding concentrations (BC₅₀) using the Graphpad Prism software. BC₅₀ values expressed as molarity were extrapolated from concentration in ng/ml using a 150 kDa molecular weight value for all antibodies.

Experiment [6] concerns the target T5, recombinant mouse IL-15 (R&D Systems cat. no. 447-ML) (mouse, UniProt P48346 49-162).
T5 sequence: T2 sequence with F19S, I82A, R95K, N96T, H106R
In words: ELISA, plate-bound recombinant mouse IL-15 (100 ng/well), HRP goat anti-human IgG, absorbance at 450 nm. The procedure:
as §1, §2
(In general: An ELISA detects its analyte on a solid surface through an enzyme-linked reagent.)

Experiment [7] deals with T4, recombinant human IL-15 (Prospec cat …). The experiment in a line: SPR (Biacore 3000), human IL-15 amine-coupled to the chip, antibody injected, 1:1 Langmuir fit. The procedure:
Human IL-15 (Prospec cat no. CYT230) was immobilized onto a CMS chip (GE Healthcare) using standard amine coupling, and antibodies injected at various concentrations in 120 μl phosphate buffer saline with a flow rate of […]. Binding kinetics were analyzed on a Biacore 3000 apparatus (GE Healthcare) with a 300 seconds dissociation period. Reference signal and 0 nM antibody concentration signal were substracted and data fitted using a 1:1 (Langmuir) binding model.
(SPR reads the build-up and loss of mass on a sensor chip optically.)

In experiment [8] the target is T3, recombinant Macaque Monkey IL-15 …. In words: ELISA, plate-bound Macaque Monkey IL-15; printed as BC50 (half-maximal binding concentration). The procedure:
as §3, §4

The target in experiment [9] is T4, recombinant human IL-15 (Prospec cat …). In words: ELISA, plate-bound recombinant human IL-15 (100 ng/well), HRP goat anti-human IgG, absorbance at 450 nm. The procedure: as §3
The plate was then blocked with 2% normal goat serum for 30 min at 37° C. and washed 6 times with PBS-Tween (0.05% Tween-20 in PBS, v/v). […] The reaction was stopped by the addition of 1M H₂SO₄ and read at 450 nm. Dose response curves of absorbance versus concentration were plotted and analyzed to determine half-maximal binding concentrations (BC₅₀) using the Graphpad Prism software. BC₅₀ values expressed as molarity were extrapolated from concentration in ng/ml using a 150 kDa molecular weight value for all antibodies.

Experiment [10] addresses recombinant human IL-2 (R&D Systems cat. no. 202-IL-010) (human, UniProt P60568 21-153). The experiment in a line: ELISA, plate-bound recombinant human IL-2 (100 ng/well), HRP goat anti-human IgG, absorbance at 450 nm. The procedure:
Maxisorp plates were coated with recombinant human IL-2 (R&D Systems cat. no. 202-IL-010) of SEQ ID NO: 38 at 100 ng/well in carbonate coating buffer for 2 hours at 37° C. The plate was then blocked with 2% normal goat serum for 30 min at 37° C. and washed 4 times with PBS-Tween (0.05% Tween-20 in PBS, v/v). Test antibodies or positive control biotinylated antibody (anti-IL-2 Novus Bio cat. no. NBP1-43491) were added to the plate in duplicate at 5 μg/ml in PBS-Tween and the plate was incubated with gentle rocking at room temperature for 2 hours. The plate was then washed 4 times with PBS-Tween and an appropriate dilution of goat anti-human IgG antibody (Millipore cat. no. AP309P) conjugated to horseradish peroxidase (HRP) for test antibodies, or streptavidin-HRP for positive control antibody, was added to the plate and left rocking at room temperature for 1 hour. The plate was then washed 4 times with PBS-Tween and incubated with TMB (3,3′,5,5′-tetramethylbenzidine) substrate. The reaction was stopped by the addition of 1 M H₂SO₄ and read at 450 nm.

The target in experiment [11] is T6, human IL-15 (preparation not stated) (human, UniProt P40933 49-162, limits assumed).
T6 construct: also called recombinant IL-15; recombinant human IL-15
In words: ELISA.

Where a chain is given by its changes, count along the chain named.

We go through eight molecules from patent publication US20170137511A1 (CALYPSO BIOTECH, published 2017).

The EC50 is the midpoint of the concentration-response curve. The Kd is the concentration at which binding is half-saturated. The koff is the rate constant with which the complex falls apart. As a reminder, the kon is the rate constant with which the complex forms. The term EC50 (read off the curve) denotes the concentration that produces a half-maximal response.

T3 sequence (P40221 49-162): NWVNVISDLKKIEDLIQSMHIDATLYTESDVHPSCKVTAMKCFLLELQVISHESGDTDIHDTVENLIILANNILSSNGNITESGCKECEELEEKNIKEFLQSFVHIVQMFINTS
T6 sequence (P40933 49-162 limits assumed): as the sequence (P40221 49-162) above, with H52L, T57A, D58S, I73S, I80V counted along it
T1 sequence (P40933 49-162 limits assumed): as the sequence (P40221 49-162) above, with H52L, T57A, D58S, I73S, I80V counted along it
T4 sequence (P40933 other isoform, or with tags, fused parts or gaps): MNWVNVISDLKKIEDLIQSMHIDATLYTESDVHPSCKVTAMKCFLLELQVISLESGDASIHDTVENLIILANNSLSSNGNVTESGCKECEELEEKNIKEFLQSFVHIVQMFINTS
recombinant human IL-2 (R&D Systems cat. no. 202-IL-010), sequence (P60568 21-153 limits assumed): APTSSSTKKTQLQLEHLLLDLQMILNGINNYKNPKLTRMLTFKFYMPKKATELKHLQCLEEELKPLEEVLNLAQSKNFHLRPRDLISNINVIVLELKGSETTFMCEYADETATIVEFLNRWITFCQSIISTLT

B1: huB-E29-24 (antibody, human IgG1, kappa, V domains shown)
VH: EVQLVESGGGLVQPGGSLRLSCAASEFTFSNYAMSWVRQAPGKGLEWVATISRGGDYTYYPDSVKGRFTISRDNSKNTLYLQMNSLRAEDTAVYYCARRVSMITGGYAMDYWGQGTLVTVSS
VL: DVVMTQSPLSLPVTLGQPASISCRSSQSIVDITGNTYLEWYQQRPGQSPRLLIYKVFNRFSGVPDRFSGSGSGTDFTLKISRVEAEDVGVYYCFQDSFVPYTFGQGTKLEIKR
notes: Humanized B-E29 variant; human IgG1 (G1m3) / kappa (Km3), produced in CHO cells; also called huVH18/huVL1
In the case of B1, the “IC50 in M07e cells for IL-15 trans presentation” value in experiment [1] turned out to be 0.65 nM. The binding result in [2] is “no binding (tested: log 3.7 (about 5000 ng/mL))”. Further, in experiment [3], the “IC50 in Kit 225 cells (nM), Macaque Monkey IL-15” value was 26.7 nM and the “IC50 in M-07e cells (nM), Macaque Monkey IL-15” value came to 10.4 nM. For the same molecule, in [4], the “IC50 in Kit 225 cells (nM), Human IL-15” value was 29.3 nM and the “IC50 in M-07e cells (nM), Human IL-15” value is 19.1 nM. Moreover, the EC50 in experiment [5] was determined as 0.647 nM. Besides, the binding result in experiment [6] is “no binding (tested: log 3.7 (about 5000 ng/mL))”. In addition, in experiment [7], the equilibrium dissociation constant (Kd) worked out at 0.329 nM, the koff is 0.000574 s⁻¹ and the kon was 1.75e+06 M⁻¹ s⁻¹. For the same molecule, the 50% effective concentration (EC50) in experiment [8] was determined as 0.113 nM.

B2: huB-E29-1 (antibody, human IgG1, kappa)
heavy: not shown
light: DVVMTQSPLSLPVTLGQPASISCRSSQSIVDITGNTYLEWYQQRPGQSPRLLIYKVFNRFSGVPDRFSGSGSGTDFTLKISRVEAEDVGVYYCFQDSFVPYTFGQGTKLEIKRTVAAPSVFIFPPSDEQLKSGTASVVCLLNNFYPREAKVQWKVDNALQSGNSQESVTEQDSKDSTYSLSSTLTLSKADYEKHKVYACEVTHQGLSSPVTKSFNRGEC
notes: Humanized B-E29 variant; human IgG1 (G1m3) / kappa (Km3), produced in CHO cells; also called huVH1/huVL1; hVH1:hVK1
In the case of B2, the 50% effective concentration (EC50) came to 1.33 nM in [5] and 0.487 nM in experiment [8]. The “EC50 (read off the curve)” value in experiment [9] was roughly 0.2 µg/mL.

B3: huB-E29-10 (antibody, human IgG1, kappa, V domains shown)
VH: B1 VH with Q3R, V5M, E6A, S63T
VL: B1 VL
notes: Humanized B-E29 variant; human IgG1 (G1m3) / kappa (Km3), produced in CHO cells; also called huVH8/huVL1
Turning to B3, in experiment [1], the “IC50 in M07e cells for IL-15 trans presentation” value was determined as 0.53 nM. Besides, the binding result in experiment [10] is “no binding (tested: 5 µg/ml)”. For the same molecule, in experiment [2], the binding result was “no binding (tested: log 3.7 (about 5000 ng/mL))”. Further, in experiment [3], the “IC50 in Kit 225 cells (nM), Macaque Monkey IL-15” value stood at 17.5 nM and the “IC50 in M-07e cells (nM), Macaque Monkey IL-15” value was 41.3 nM. Moreover, in experiment [4], the “IC50 in Kit 225 cells (nM), Human IL-15” value is 17 nM and the “IC50 in M-07e cells (nM), Human IL-15” value amounted to 4.2 nM. The half-maximal effective concentration (EC50) in [5] is 0.507 nM. The binding result in [6] is recorded as “no binding (tested: log 3.7 (about 5000 ng/mL))”. In experiment [7], the Kd was determined as 0.295 nM, the koff worked out at 0.000423 s⁻¹ and the kon turned out to be 1.43e+06 M⁻¹ s⁻¹. Besides, in experiment [8], the EC50 was found to be 0.353 nM.

B4: huB-E29-4 (antibody, human IgG1, kappa, V domains shown)
VH: B1 VH with Q3R, V5M, E6A, Y107W
VL: B1 VL with Y41F
notes: Humanized B-E29 variant; human IgG1 (G1m3) / kappa (Km3), produced in CHO cells; also called huVH1/huVL2
On to B4, for which the binding result in experiment [10] is given as “no binding (tested: 5 µg/ml)”. Also, the concentration for a half-maximal effect (EC50) in experiment [5] turned out to be 1.01 nM; in [8], 0.5 nM.

B5: huB-E29-18 (antibody, human IgG1, kappa, V domains shown)
VH: B1 VH with Q3R, V5M, E6A, Y107W
VL: B1 VL with D96E
notes: Humanized B-E29 variant; human IgG1 (G1m3) / kappa (Km3), produced in CHO cells; also called huVH1/huVL4
For the molecule B5, the EC50 in [5] worked out at 0.693 nM; in experiment [8], 0.367 nM.

B6: cVH1:cVK1 (antibody, human IgG1, kappa, V domains shown)
VH: EVRLMASGGGLVKPGGSLKLSCAASEFTFSNYAMSWVRQTPEKRLEWVATISRGGDYTYYPDSVKGRFTISRDNAKNTLYLQMSSLRSEDTALYYCARRVSMITGGWAMDYWGQGTSVTVSS
VL: DVLMTQTPLSLPVSLGDQASISCRSSQSIVDITGNTYLEWYLQKPGQSPKLLIYKVFNRFSGVPDRFSGSGSGTDFTLKISRVEAEDLGLYYCFQDSFVPYTFGGGTKLEIKR
notes: Mouse B-E29 variable regions on human IgG1 (G1m3) / kappa (Km3); also called chimeric B-E29
In the case of B6, the binding result in experiment [11] is recorded as “binds”.

B7: hVH1:cVK1 (antibody, human IgG1, kappa, V domains shown)
VH: B1 VH with Q3R, V5M, E6A, Y107W
VL: B6 VL
notes: Human IgG1 (G1m3) / kappa (Km3)
Regarding B7, the binding result in experiment [11] is “binds”.

B8: cVH1:hVK1 (antibody, human IgG1, kappa, V domains shown)
VH: B6 VH
VL: B1 VL
notes: as for B7
For B8, in experiment [11], the binding result is “binds”.
